The text below walks through data of the RNAGym collection of RNA variant scans (doi:10.7554/elife.90254).

First the molecules themselves.
B1: OR4K15 (parent)
chain: GUUAACGGUCAUAGGCCAUGGAAACUAGGAGCACCAUUUCGCUGCCAGUGAAGAAAUGAACAAAGAAAAUCUGGGCCAGGCAGGCAUCAAAAGAAAUAGUCUUGCGCUCAACCAGAAAGUCUGUAAUCAUUUUAAGGGUA

In this data set the parent is B1. Kind of data set: self-cleavage, relative activity (ratio to wild type); higher = more cleavage; in vitro, sequencing; the parent is a self-cleaving ribozyme.
Take GUUAACGGUCAUAGGCCAUGGAAACUAGGGGCACCAUUUCGCUGCCAGUGAAGAAAUGAACAAAGAAAAUCUGGGCCAGGCAGGCAUCAAAAGAAAUAGUCUUGCGCUCAACUAGAAAGUCUGUAAUCAUUUUAAGGGUA [A30G C113U]: the self-cleavage amounted to 0.07.
As for GUUAACGGUCAUAGGCCAUGGAAACUAGGGGCACCAUUUCGCUGCCAGUGAAGAAAUGAACAAAGAAAAUCUGGGCCAGGCAGGCAUCAAAAGAAAUAGUCUUGCGCUCAACCUGAAAGUCUGUAAUCAUUUUAAGGGUA [A30G A114U], the figure is 0.05.
The same measure for GUUAACGGUCAUAGGCCAUGGAAACUAGGGGCACCAUUUCGCUGCCAGUGAAGAAAUGAACAAAGAAAAUCUGGGCCAGGCAGGCAUCAAAAGAAAUAGUCUUGCGCUCAACCGGAAAGUCUGUAAUCAUUUUAAGGGUA [A30G A114G]: 0.23; for GUUAACGGUCAUAGGCCAUGGAAACUAGGGGCACCAUUUCGCUGCCAGUGAACAAAUGAACAAAGAAAAUCUGGGCCAGGCAGGCAUCAAAAGAAAUAGUCUUGCGCUCAACCAGAAAGUCUGUAAUCAUUUUAAGGGUA [A30G G53C]: 1.95.
As for GUUAACGGUCAUAGGCCAUGGAAACUAGGGGCACCAUUUCGCUGCCAGUGAAGAAAUGAACAAAGAAAAUCUGGGCCAGGCAGGCAUCAAAAGAAAUAGUCUUGCGCUCAACCAGAAAGUCUGUAAUCAUUUUAAGGGUG [A30G A140G], the figure is 1.34; as for GUUAACGGUCAUAGGCCAUGGAAACUAGGGGCACCAUUUUGCUGCCAGUGAAGAAAUGAACAAAGAAAAUCUGGGCCAGGCAGGCAUCAAAAGAAAUAGUCUUGCGCUCAACCAGAAAGUCUGUAAUCAUUUUAAGGGUA [A30G C40U], 0.89; as for GUUAACGGUCAUAGGCCAUGGAAACUAGGGGCACCAUUUCGCUGCCAGUGAAGAAAUGAAUAAAGAAAAUCUGGGCCAGGCAGGCAUCAAAAGAAAUAGUCUUGCGCUCAACCAGAAAGUCUGUAAUCAUUUUAAGGGUA [A30G C61U], 0.84.
Take GUUAACGGUCAUAGGCCAUGGAAACUAGGGCCACCAUUUCGCUGCCAGUGAAGAAAUGAACAAAGAAAAUCUGGGCCAGGCAGGCAUCAAAAGAAAUAGUCUUGCGCUCAACCAGAAAGUCUGUAAUCAUUUUAAGGGUA [A30G G31C]: the self-cleavage came to 2.
Take GUUAACGGUCAUAGGCCAUGGAAACUAGGGGCACCAUUUCGCUGCCAGUGAAGAAAUGAACAAAGAAAAUCUGGGCCAGGCAGGCAUCAAAAGAAAUAGUCUUGCGCUCAACCAGAAUGUCUGUAAUCAUUUUAAGGGUA [A30G A118U]: the self-cleavage turned out to be 0.62.
The same measure for GUUAACGGUCAUAGGCCAUGGAAACUAGGGGCACCAUUUCGCUGCCAGUGAAGAAAUGAACAAAGAAAAUCUGGGCCAGGCAGGCAUCAAAAGAAAUAGUCUUGCGCUCAACCAGAAGGUCUGUAAUCAUUUUAAGGGUA [A30G A118G]: 1.2.
As for GUUAACGGUCAUAGGCCAUGGAAACUAGGGGCACCAUUUCGCUGCCAGUGAAGAAAUGAACAAUGAAAAUCUGGGCCAGGCAGGCAUCAAAAGAAAUAGUCUUGCGCUCAACCAGAAAGUCUGUAAUCAUUUUAAGGGUA [A30G A64U], the figure is 0.3; as for GUUAACGGUCAUAGGCCAUGGAAACUAGGGGCACCAUUUCGCUGCCAGUGAAGAAAUGAACAACGAAAAUCUGGGCCAGGCAGGCAUCAAAAGAAAUAGUCUUGCGCUCAACCAGAAAGUCUGUAAUCAUUUUAAGGGUA [A30G A64C], 1.38.
As for GUUAACGGUCAUAGGCCAUGGAAACUAGGGGCACCAUUUCGCUGCCAGUGAAGAAAUGAACAAAGAAAAUCUGGGCCAGGCAGGCAUCAAAAGAAAUAGUCUUGCGCUCAACCAGAAAGUAUGUAAUCAUUUUAAGGGUA [A30G C121A], the figure is 2.31; as for GUUAACGGUCAUAGGCCAUGGAAACUAGGGGCACCAUUUCGCUGCCAGUGAAGAAAUGAACAAAGACAAUCUGGGCCAGGCAGGCAUCAAAAGAAAUAGUCUUGCGCUCAACCAGAAAGUCUGUAAUCAUUUUAAGGGUA [A30G A67C], 1.15.
For GUUAACGGUCAUAGGCCAUGGAAACUAGGGGCACCAUUUCGCUGCCAGUGAAGAAAUGAACAAAGAAAAUCUGGGCCAGGCCGGCAUCAAAAGAAAUAGUCUUGCGCUCAACCAGAAAGUCUGUAAUCAUUUUAAGGGUA [A30G A82C], the self-cleavage was determined as 0.07.
Consider GUUAACGGUCAUAGGCCAUGGAAACUAGGGGCACCAUUUCGCUGCCAGUGAAGAAAUGAACAAAGAAAAUCUGGGCCAGGCAGGCAUCAAAAGAAAUAGUCUUGCGCUCAACCAGAGAGUCUGUAAUCAUUUUAAGGGUA [A30G A117G], for which the self-cleavage was 1.48.
As for GUUAACGGUCAUAGGCCAUGGAAACUAGGGGCACCAUUUCGCUGCCAGUGAAGAAAUGAACAAAGAAAAUCUGGGCCAGGCAGGCAUCAAAAGAAAUAGUCUUGCGCUCAUCCAGAAAGUCUGUAAUCAUUUUAAGGGUA [A30G A111U], the figure is 0.05.
As for GUUAACGGUCAUAGGCCAUGGAAACUAGGGGUACCAUUUCGCUGCCAGUGAAGAAAUGAACAAAGAAAAUCUGGGCCAGGCAGGCAUCAAAAGAAAUAGUCUUGCGCUCAACCAGAAAGUCUGUAAUCAUUUUAAGGGUA [A30G C32U], the figure is 0.93; as for GUUAACGGUCAUAGGCCAUGGAAACUAGGGGCACCAUUUCGCUGCCAGUGAAGAAAUGAACAAAGAAAAUCUGGGCCAGGCAGGCAUCAAAAGAAAUGGUCUUGCGCUCAACCAGAAAGUCUGUAAUCAUUUUAAGGGUA [A30G A98G], 0.76.
The same measure for GUUAACGGUCAUAGGCCAUGGAAACUAGGGGCACCAUUUCGCUGCCAGUGAAGAAAUGAACAAAGAAAAUCUGGGCCAGGCAGGCAUCAAAAGAAAUAGUCUUGCGCUCAACCAUAAAGUCUGUAAUCAUUUUAAGGGUA [A30G G115U]: 0.21; for GUUAACGGUCAUAGGCCAUGGAAACUAGGGGCACCAUUUCGCUGCCAGUGAAGAAAUGAACAAAGAAAAUCUGGGCCAGGCAGGCAUCAAAAGAGAUAGUCUUGCGCUCAACCAGAAAGUCUGUAAUCAUUUUAAGGGUA [A30G A95G]: 0.44.
Consider GUUAACGGUCAUAGGCCAUGGAAACUAGGGGCACCAUUUCGCUGCCAGUGAAGAAAUGAACAAAGAAAAUCUGGGCCAGGCAGGCAUCAAAAGAAAUAGUCUUGCGCUCAACCAGAAAAUCUGUAAUCAUUUUAAGGGUA [A30G G119A], for which the self-cleavage was determined as 2.01.
As for GUUAACGGUCAUAGGCCAUGGAAACUAGGGGCACCAUUUCGCUGCCAGUGAAGAAAUGAACAAAGAAAAUCUGGGCCAGGCAGGCAUCAAAAGAAAUAGUCUUGCGCUCUACCAGAAAGUCUGUAAUCAUUUUAAGGGUA [A30G A110U], the figure is 1.1; as for GUUAACGGUCAUAGGCCAUGGAAACUAGGGGCACCAUUUCGCAGCCAGUGAAGAAAUGAACAAAGAAAAUCUGGGCCAGGCAGGCAUCAAAAGAAAUAGUCUUGCGCUCAACCAGAAAGUCUGUAAUCAUUUUAAGGGUA [A30G U43A], 1.01.
The same measure for GUUAACGGUCAUAGGCCAUGGAAACUAGGGGCACCAUUUCGCUGCCAGUGAAGAAAUGAACAAAGAAAAUCUGGGCCAGGCAGGCAUCAAAAGAAAUAGUCUUGCGCUCAACCAGAAAGUCUGUAAUUAUUUUAAGGGUA [A30G C128U]: 1.78; for GUUAACGGUCAUAGGCCAUGGAAACUAGGGGCACCAUUUCGCUGCCAGUGAAGAAAUGAACAAAGAAAAUCUGGGCCAGGCAGGCAUCAAAAGAAAUAGUCUUGCGCUCAACCAGAAAGUCUGUAAUCAUUUUGAGGGUA [A30G A134G]: 0.98; for GUUAACGGUCAUAGGCCAUGGAAACUAGGGGCACCAUUUCGCUGCCAGUGAAGAAAUGAACAAAGAAAAUCUGGGCCAGGCAGGCAUCAAAAGAAAUAGUCUUGCGCUCAACCAGAAAGUCUGUAAUCGUUUUAAGGGUA [A30G A129G]: 1.02.
As for GUUAACGGUCAUAGGCCAUGGAAACUAGGGGCACCAUUUCGCUGCCAGUGAAGAAAUGAACAAAGAAAAUCUGGGCCAGGCAGGCAUCAAAAGAAAUAGUCUUACGCUCAACCAGAAAGUCUGUAAUCAUUUUAAGGGUA [A30G G104A], the figure is 0.08; as for GUUAACGGUCAUAGGCCAUGGAAACUAGGGGCACCACUUCGCUGCCAGUGAAGAAAUGAACAAAGAAAAUCUGGGCCAGGCAGGCAUCAAAAGAAAUAGUCUUGCGCUCAACCAGAAAGUCUGUAAUCAUUUUAAGGGUA [A30G U37C], 0.98.
Turning to GUUAACGGUCAUAGGCCAUGGAAACUAGGGGCACCAAUUCGCUGCCAGUGAAGAAAUGAACAAAGAAAAUCUGGGCCAGGCAGGCAUCAAAAGAAAUAGUCUUGCGCUCAACCAGAAAGUCUGUAAUCAUUUUAAGGGUA [A30G U37A], the self-cleavage was 1.7.
The same measure for GUUAACGGUCAUAGGCCAUGGAAACUAGGGGCACCAUUUCGCUGCCAGUGAAGAAAUGAACAAAGAAAAUCUGCGCCAGGCAGGCAUCAAAAGAAAUAGUCUUGCGCUCAACCAGAAAGUCUGUAAUCAUUUUAAGGGUA [A30G G74C]: 0.34; for GUUAACGGUCAUAGGCCAUGGAAACUAGGGGCACCAUUUCGCUGCCAGUGAAGAAAUGAACAAAGAAAAUCUGGGCCAGGCAGGCAUCAUAAGAAAUAGUCUUGCGCUCAACCAGAAAGUCUGUAAUCAUUUUAAGGGUA [A30G A90U]: 1.68; for GUUAACGGUCAUAGGCCAUGGAAACUAGGGGCACCAUGUCGCUGCCAGUGAAGAAAUGAACAAAGAAAAUCUGGGCCAGGCAGGCAUCAAAAGAAAUAGUCUUGCGCUCAACCAGAAAGUCUGUAAUCAUUUUAAGGGUA [A30G U38G]: 1.4.
Consider GUUAACGGUCAUAGGCCAUGGAAACUAGGGGCACCAUUUCGCUGCCAGUGAAGAAAUGAACAAAGAAAAUCUGGGCCAGGCAGGUAUCAAAAGAAAUAGUCUUGCGCUCAACCAGAAAGUCUGUAAUCAUUUUAAGGGUA [A30G C85U], for which the self-cleavage was determined as 0.69.
The same measure for GUUAACGGUCAUAGGCCAUGGAAACUAGGGGCACCAUUUCGCUGCCAGUGAAGAAAUGAACAAAGAAAUUCUGGGCCAGGCAGGCAUCAAAAGAAAUAGUCUUGCGCUCAACCAGAAAGUCUGUAAUCAUUUUAAGGGUA [A30G A69U]: 1.18; for GUUAACGGUCAUAGGCCAUGGAAACUAGGGGCACCAUUUCGCUGCCAGUGAAGAAAUGAACAAAGAAAAUCUGGGCCAGGCAGGCAUCAAAUGAAAUAGUCUUGCGCUCAACCAGAAAGUCUGUAAUCAUUUUAAGGGUA [A30G A92U]: 0.71.
As for GUUAACGGUCAUAGGCCAUGGAAACUAGGGGCACCAUUUCGCUGCCAGUGAAGAAAUGAACAAAGAAAAUCUGGGCCAGGCAGGCAUCAAAGGAAAUAGUCUUGCGCUCAACCAGAAAGUCUGUAAUCAUUUUAAGGGUA [A30G A92G], the figure is 1.05; as for GUUAACGGUCAUAGGCCAUGGAAACUAGGGGCACAAUUUCGCUGCCAGUGAAGAAAUGAACAAAGAAAAUCUGGGCCAGGCAGGCAUCAAAAGAAAUAGUCUUGCGCUCAACCAGAAAGUCUGUAAUCAUUUUAAGGGUA [A30G C35A], 0.7; as for GUUAACGGUCAUAGGCCAUGGAAACUAGGGGCACCAUUUCGCUGCCAGUGAAGAAAUGAACAAAGAAUAUCUGGGCCAGGCAGGCAUCAAAAGAAAUAGUCUUGCGCUCAACCAGAAAGUCUGUAAUCAUUUUAAGGGUA [A30G A68U], 1.28.
As for GUUAACGGUCAUAGGCCAUGGAAACUAGGGGCACCAUUUCGCUGCCAGUGAAGAAAUGAACAAAGAAAAUCUGGGCCAGGCAGGCAUCAAAAGAAAUAGUCUUGCGCUCAACCAGAAAGUCUGUGAUCAUUUUAAGGGUA [A30G A125G], the figure is 0.87; as for GUUAACGGUCAUAGGCCAUGGAAACUAGGGGCACCAUUUCGCUGCCAGUGAAGAAAUGAACAAAGAAAAUCUGGGCCAGGCAGGCAUCAAAAGAAAUAGUCUUGCGCUCAACCAGAAAGUCUGUAAUCAUUUUAGGGGUA [A30G A135G], 1.51.
